Source: the RNAGym collection of RNA variant scans (doi:10.1093/molbev/msab373)

B1: Azoarcus group I ribozyme (parent)
chain: GUGCCUUGCGCCGGGAAACCACGCAAGGGAUGGUGUCAAAUUCGGCGAAACCUAAGCGCCCGCCCGGGCGUAUGGCAACGCCGAGCCAAGCUUCGGCGCCUGCGCCGAUGAAGGUGUAGAGACUAGACGGCACCCACCUAAGGCAAACGCUAUGGUGAAGGCAUAGUCCAGGGAGUGGCGAAAGUCACACAAACCGG

Variants of: B1
Test: reverse-splicing fitness (ratio to wild type); higher = more active; in vitro selection; Mg2+ level not given
Outline: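 An in vitro group I ribozyme library with randomized positions was T7-transcribed and gel-purified. In triplicate, 10 pmol RNA in EPPS pH 7.5 was reacted with 50 pmoles of a 30-nt RNA substrate for 1 h at 37 °C across several added MgCl2 levels (1–48 mM), then stopped with EDTA. Products were reverse transcribed from a substrate-complementary primer, PCR-amplified and sequenced (HiSeq 4000). Fitness is a variant's read proportion after selection over that before, normalised to wild type.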

Q: Which reverse-splicing fitness does the source give for A111C A120U A145G C150U C169U U176A here?
A: The reverse-splicing fitness was 0.0118.

Q: With A111C A120U A145G C150U C169U U176G as the variant, how does the reverse-splicing fitness read?
A: Its reverse-splicing fitness is 0.00321.

Q: Which reverse-splicing fitness does the source give for A111C A120U here?
A: Its reverse-splicing fitness is 0.659.

Q: For A111C A120U C150A C169U U176C, which reverse-splicing fitness is on record?
A: The reverse-splicing fitness was 0.0062.

Q: For A111C A120U C150A C169U U176A, which reverse-splicing fitness is on record?
A: The reverse-splicing fitness was 0.00902.

Q: Which reverse-splicing fitness does the source give for A111C A120U C150A C169U U176G here?
A: The reverse-splicing fitness was 0.00274.

Q: With A111C A120U A145C C150G U176C as the variant, how does the reverse-splicing fitness read?
A: The reverse-splicing fitness was 0.0215.

Q: With A111C A120U A145C C150G U176A as the variant, how does the reverse-splicing fitness read?
A: The reverse-splicing fitness was 0.0207.

Q: Which reverse-splicing fitness does the source give for A111C A120U A145C C150G U176G here?
A: The reverse-splicing fitness was 0.00459.

Q: For A111C A120U C169G U176A, which reverse-splicing fitness is on record?
A: Its reverse-splicing fitness is 0.00529.

Q: With A111C A120U C169G U176C as the variant, how does the reverse-splicing fitness read?
A: The reverse-splicing fitness was 0.00999.

Q: With A111C A120U C169G U176G as the variant, how does the reverse-splicing fitness read?
A: Its reverse-splicing fitness is 0.00154.

Q: With A111C A120U A145U C150U C169G U176G as the variant, how does the reverse-splicing fitness read?
A: The reverse-splicing fitness was 0.00261.

Q: With A111C A120U A145U C150U C169G U176C as the variant, how does the reverse-splicing fitness read?
A: The reverse-splicing fitness was 0.00885.

Q: For A111C A120U A145U C150U C169G U176A, which reverse-splicing fitness is on record?
A: The reverse-splicing fitness was 0.00509.

Q: For A111C A120G C150A U176G, which reverse-splicing fitness is on record?
A: Its reverse-splicing fitness is 0.00592.

Q: With A111C A120G C150A U176C as the variant, how does the reverse-splicing fitness read?
A: The reverse-splicing fitness was 0.0209.

Q: Which reverse-splicing fitness does the source give for A111C A120G C150A U176A here?
A: Its reverse-splicing fitness is 0.0175.

Q: For A111C A120U A145C C150U C169A U176G, which reverse-splicing fitness is on record?
A: Its reverse-splicing fitness is 0.00188.

Q: Which reverse-splicing fitness does the source give for A111C A120U A145C C150U C169A U176C here?
A: Its reverse-splicing fitness is 0.00249.

Q: Which reverse-splicing fitness does the source give for A111C A120U A145C C150U C169A U176A here?
A: Its reverse-splicing fitness is 0.00274.

Q: Which reverse-splicing fitness does the source give for A111C A120U A145G C150U C169G here?
A: Its reverse-splicing fitness is 0.0471.

Q: With A111C A120U A145G C150U C169A as the variant, how does the reverse-splicing fitness read?
A: The reverse-splicing fitness was 0.00795.

Q: With A111C A120U A145G C150U C169U as the variant, how does the reverse-splicing fitness read?
A: Its reverse-splicing fitness is 0.065.

Q: Which reverse-splicing fitness does the source give for A111C A120U A145G C150A C169U U176A here?
A: Its reverse-splicing fitness is 0.00876.

Q: Which reverse-splicing fitness does the source give for A111C A120U A145G C150A C169U U176C here?
A: Its reverse-splicing fitness is 0.00638.

Q: Which reverse-splicing fitness does the source give for A111C A120U A145G C150A C169U U176G here?
A: Its reverse-splicing fitness is 0.00263.

Q: With A111C A120U A145U C150U C169A U176G as the variant, how does the reverse-splicing fitness read?
A: The reverse-splicing fitness was 0.00217.

Q: With A111C A120U A145U C150U C169A U176C as the variant, how does the reverse-splicing fitness read?
A: Its reverse-splicing fitness is 0.00252.

Q: Which reverse-splicing fitness does the source give for A111C A120U A145U C150U C169A U176A here?
A: Its reverse-splicing fitness is 0.00293.

Q: Which reverse-splicing fitness does the source give for A111C A145C C150G C169A U176C here?
A: Its reverse-splicing fitness is 0.00833.

Q: For A111C A145C C150G C169A U176A, which reverse-splicing fitness is on record?
A: Its reverse-splicing fitness is 0.00774.

Q: For A111C A145C C150G C169A U176G, which reverse-splicing fitness is on record?
A: The reverse-splicing fitness was 0.00574.

Q: Which reverse-splicing fitness does the source give for A111C A120U A145C C150G C169U U176G here?
A: The reverse-splicing fitness was 0.0023.

Q: With A111C A120U A145C C150G C169U U176C as the variant, how does the reverse-splicing fitness read?
A: Its reverse-splicing fitness is 0.00313.

Q: Which reverse-splicing fitness does the source give for A111C A120U A145C C150G C169U U176A here?
A: The reverse-splicing fitness was 0.00402.

Q: Which reverse-splicing fitness does the source give for A111C A120G U176C here?
A: The reverse-splicing fitness was 0.0417.

Q: With A111C A120G U176G as the variant, how does the reverse-splicing fitness read?
A: The reverse-splicing fitness was 0.00629.

Q: Which reverse-splicing fitness does the source give for A111C A120G U176A here?
A: The reverse-splicing fitness was 0.0401.

Q: For A111C A120U C150U C169G U176G, which reverse-splicing fitness is on record?
A: The reverse-splicing fitness was 0.00251.

Q: With A111C A120U C150U C169G U176C as the variant, how does the reverse-splicing fitness read?
A: The reverse-splicing fitness was 0.00812.

Q: With A111C A120U C150U C169G U176A as the variant, how does the reverse-splicing fitness read?
A: Its reverse-splicing fitness is 0.00676.

Q: Which reverse-splicing fitness does the source give for A111C A120U C169A U176G here?
A: Its reverse-splicing fitness is 0.00232.

Q: With A111C A120U C169A U176C as the variant, how does the reverse-splicing fitness read?
A: Its reverse-splicing fitness is 0.00293.

Q: With A111C A120U C169A U176A as the variant, how does the reverse-splicing fitness read?
A: Its reverse-splicing fitness is 0.00319.

Q: Which reverse-splicing fitness does the source give for A111C A120U A145G C150G C169U U176G here?
A: Its reverse-splicing fitness is 0.00436.

Q: For A111C A120U A145G C150G C169U U176A, which reverse-splicing fitness is on record?
A: The reverse-splicing fitness was 0.00885.

Q: With A111C A120U A145G C150G C169U U176C as the variant, how does the reverse-splicing fitness read?
A: Its reverse-splicing fitness is 0.00769.

Q: With A111C A120U A145U C150A C169A U176G as the variant, how does the reverse-splicing fitness read?
A: Its reverse-splicing fitness is 0.00209.

Q: With A111C A120U A145U C150A C169A U176A as the variant, how does the reverse-splicing fitness read?
A: Its reverse-splicing fitness is 0.00258.

Q: For A111C A120U A145U C150A C169A U176C, which reverse-splicing fitness is on record?
A: Its reverse-splicing fitness is 0.00244.

Q: With A111C A120U A145G C150U C169G U176A as the variant, how does the reverse-splicing fitness read?
A: The reverse-splicing fitness was 0.0074.

Q: With A111C A120U A145G C150U C169G U176C as the variant, how does the reverse-splicing fitness read?
A: Its reverse-splicing fitness is 0.00994.

Q: With A111C A120U A145G C150U C169G U176G as the variant, how does the reverse-splicing fitness read?
A: Its reverse-splicing fitness is 0.00262.

Q: Which reverse-splicing fitness does the source give for A111C A120U A145C C150A C169A U176A here?
A: The reverse-splicing fitness was 0.00259.

Q: With A111C A120U A145C C150A C169A U176C as the variant, how does the reverse-splicing fitness read?
A: Its reverse-splicing fitness is 0.00233.

Q: With A111C A120U A145C C150A C169A U176G as the variant, how does the reverse-splicing fitness read?
A: The reverse-splicing fitness was 0.00226.

Q: Which reverse-splicing fitness does the source give for A111C A120U A145G C150A C169A U176C here?
A: Its reverse-splicing fitness is 0.00438.

Q: With A111C A120U A145G C150A C169A U176G as the variant, how does the reverse-splicing fitness read?
A: Its reverse-splicing fitness is 0.00318.

Q: With A111C A120U A145G C150A C169A U176A as the variant, how does the reverse-splicing fitness read?
A: The reverse-splicing fitness was 0.0071.

Q: For A111C A120U A145G C150G C169G, which reverse-splicing fitness is on record?
A: Its reverse-splicing fitness is 0.0117.

Q: Which reverse-splicing fitness does the source give for A111C A120U A145G C150G C169U here?
A: The reverse-splicing fitness was 0.0135.

Q: For A111C A120U A145G C150G C169A, which reverse-splicing fitness is on record?
A: The reverse-splicing fitness was 0.00873.

Q: With A111C A145C C150A C169G U176A as the variant, how does the reverse-splicing fitness read?
A: The reverse-splicing fitness was 0.0274.

Q: Which reverse-splicing fitness does the source give for A111C A145C C150A C169G U176G here?
A: Its reverse-splicing fitness is 0.00627.

Q: For A111C A145C C150A C169G U176C, which reverse-splicing fitness is on record?
A: Its reverse-splicing fitness is 0.0189.

Q: For A111C A120U A145C C169U U176A, which reverse-splicing fitness is on record?
A: The reverse-splicing fitness was 0.0108.

Q: Which reverse-splicing fitness does the source give for A111C A120U A145C C169U U176C here?
A: The reverse-splicing fitness was 0.0145.

Q: With A111C A120U A145C C169U U176G as the variant, how does the reverse-splicing fitness read?
A: The reverse-splicing fitness was 0.00215.

Q: Which reverse-splicing fitness does the source give for A111C A120U A145U C150G U176A here?
A: The reverse-splicing fitness was 0.0214.

Q: Which reverse-splicing fitness does the source give for A111C A120U A145U C150G U176C here?
A: The reverse-splicing fitness was 0.0313.

Q: For A111C A120U A145U C150G U176G, which reverse-splicing fitness is on record?
A: Its reverse-splicing fitness is 0.00462.

Q: Which reverse-splicing fitness does the source give for A111C A120U A145G C150G here?
A: The reverse-splicing fitness was 0.0721.

Q: With A111C A120U A145G C150A as the variant, how does the reverse-splicing fitness read?
A: The reverse-splicing fitness was 0.099.

Q: With A111C A120U A145G C150U as the variant, how does the reverse-splicing fitness read?
A: Its reverse-splicing fitness is 0.549.

Q: Which reverse-splicing fitness does the source give for A111C A120U C150G C169G here?
A: Its reverse-splicing fitness is 0.00853.

Q: With A111C A120U C150G C169U as the variant, how does the reverse-splicing fitness read?
A: Its reverse-splicing fitness is 0.00955.

Q: For A111C A120U C150G C169A, which reverse-splicing fitness is on record?
A: The reverse-splicing fitness was 0.00675.

Q: Which reverse-splicing fitness does the source give for A111C A120U C150G C169A U176G here?
A: The reverse-splicing fitness was 0.00363.

Q: Which reverse-splicing fitness does the source give for A111C A120U C150G C169A U176C here?
A: Its reverse-splicing fitness is 0.00504.

Q: With A111C A120U C150G C169A U176A as the variant, how does the reverse-splicing fitness read?
A: Its reverse-splicing fitness is 0.00683.

Q: Which reverse-splicing fitness does the source give for A111C A120U A145C C150U U176G here?
A: Its reverse-splicing fitness is 0.0246.

Q: With A111C A120U A145C C150U U176C as the variant, how does the reverse-splicing fitness read?
A: The reverse-splicing fitness was 0.0487.
